± gives the uncertainty stated by the source.
B1: Intersectin-1, residues 909 to 971; numbered along this chain, Q15811 (parent)
chain: QGEKVEGLQAQALYPWRAKKDNHLNFNKNDVITVLEQQDMWWFGEVQGQKGWFPKSYVKLISG

Variants of: B1
Test: abundance fitness (aPCA) (normalised: wild type 0, dead -1); higher = more abundant; growth selection in yeast, the domain comes from the species named
Settings: Homo sapiens

Point of comparison: QGEKVEGLQAQALYPWRAKKDNHLNFNKNDVITVMEQQDMWWFGEVQGQKGWFPKSYVKLISG [L35M], abundance fitness -0.019 ± 0.34. Against it:
- QGEKVEGLQAQALYPWRAKKDNHLNFNKNDVITVLEQQFMWWFGEVQGQKGWFPKSYVKLISG [D39F] — within error, -0.313 ± 0.17
- QGEKVEGLQAQALYPWRAKKDNHLNFNKNDVITVLEQQLMWWFGEVQGQKGWFPKSYVKLISG [D39L] — within error, -0.385 ± 0.17
- QGEKVEGLQAQALYPWRAKKDNHLNFNKNDVITVLEQQRMWWFGEVQGQKGWFPKSYVKLISG [D39R] — within error, -0.182 ± 0.072
- QGEKVEGLQAQALYPWRAKKDNHLNFNKNDVITVLEQFDMWWFGEVQGQKGWFPKSYVKLISG [Q38F] — within error, -0.423 ± 0.24
- QGEKVEGLQAQALYPWRAKKDNHLNFNKNDVITVLEQGDMWWFGEVQGQKGWFPKSYVKLISG [Q38G] — within error, 0.026 ± 0.079
- QGEKVEGLQAQALYPWRAKKDNHLNFNKNDVITVLEQWDMWWFGEVQGQKGWFPKSYVKLISG [Q38W] — within error, -0.286 ± 0.15
- QGEKVEGLQAQALYPWRAKKDNHLNFNKNDVITVLEQLDMWWFGEVQGQKGWFPKSYVKLISG [Q38L] — within error, -0.056 ± 0.21
- QGEKVEGLQAQALYPWRAKKDNHLNFNKNDVITVLEQRDMWWFGEVQGQKGWFPKSYVKLISG [Q38R] — within error, 0.029 ± 0.12
- QGEKVEGLQAQALYPWRAKKDNHLNFNKNDVITVLEQPDMWWFGEVQGQKGWFPKSYVKLISG [Q38P] — within error, -0.313 ± 0.16
- QGEKVEGLQAQALYPWRAKKDNHLNFNKNDVITVLEQKDMWWFGEVQGQKGWFPKSYVKLISG [Q38K] — within error, -0.173 ± 0.17
- QGEKVEGLQAQALYPWRAKKDNHLNFNKNDVITVLEQSDMWWFGEVQGQKGWFPKSYVKLISG [Q38S] — within error, -0.148 ± 0.16
- QGEKVEGLQAQALYPWRAKKDNHLNFNKNDVITVLEQCDMWWFGEVQGQKGWFPKSYVKLISG [Q38C] — within error, -0.04 ± 0.18
- QGEKVEGLQAQALYPWRAKKDNHLNFNKNDVITVLEQADMWWFGEVQGQKGWFPKSYVKLISG [Q38A] — within error, -0.463 ± 0.2
- QGEKVEGLQAQALYPWRAKKDNHLNFNKNDVITVLEQMDMWWFGEVQGQKGWFPKSYVKLISG [Q38M] — within error, -0.061 ± 0.16
- QGEKVEGLQAQALYPWRAKKDNHLNFNKNDVITVLEQVDMWWFGEVQGQKGWFPKSYVKLISG [Q38V] — within error, -0.302 ± 0.12
- QGEKVEGLQAQALYPWRAKKDNHLNFNKNDVITVLEQEDMWWFGEVQGQKGWFPKSYVKLISG [Q38E] — within error, 0.008 ± 0.16
- QGEKVEGLQAQALYPWRAKKDNHLNFNKNDVITVEEQQDMWWFGEVQGQKGWFPKSYVKLISG [L35E] — within error, -0.243 ± 0.29
- QGEKVEGLQAQALYPWRAKKDNHLNFNKNDVITVVEQQDMWWFGEVQGQKGWFPKSYVKLISG [L35V] — within error, -0.34 ± 0.18
- QGEKVEGLQAQALYPWRAKKDNHLNFNKNDVITVKEQQDMWWFGEVQGQKGWFPKSYVKLISG [L35K] — within error, 0.168 ± 0.26
- QGEKVEGLQAQALYPWRAKKDNHLNFNKNDVITVCEQQDMWWFGEVQGQKGWFPKSYVKLISG [L35C] — within error, 0.145 ± 0.36
- QGEKVEGLQAQALYPWRAKKDNHLNFNKNDVITVSEQQDMWWFGEVQGQKGWFPKSYVKLISG [L35S] — within error, -0.114 ± 0.19
- QGEKVEGLQAQALYPWRAKKDNHLNFNKNDVITVFEQQDMWWFGEVQGQKGWFPKSYVKLISG [L35F] — within error, -0.284 ± 0.26
- QGEKVEGLQAQALYPWRAKKDNHLNFNKNDVITVQEQQDMWWFGEVQGQKGWFPKSYVKLISG [L35Q] — within error, -0.058 ± 0.24
- QGEKVEGLQAQALYPWRAKKDNHLNFNKNDVITVTEQQDMWWFGEVQGQKGWFPKSYVKLISG [L35T] — within error, -0.327 ± 0.45
- QGEKVEGLQAQALYPWRAKKDNHLNFNKNDVITVAEQQDMWWFGEVQGQKGWFPKSYVKLISG [L35A] — within error, -0.612 ± 0.36
- QGEKVEGLQAQALYPWRAKKDNHLNFNKNDVITVGEQQDMWWFGEVQGQKGWFPKSYVKLISG [L35G] — within error, -0.033 ± 0.16
- QGEKVEGLQAQALYPWRAKKDNHLNFNKNDVITVWEQQDMWWFGEVQGQKGWFPKSYVKLISG [L35W] — within error, 0.111 ± 0.19
- QGEKVEGLQAQALYPWRAKKDNHLNFNKNDVITVREQQDMWWFGEVQGQKGWFPKSYVKLISG [L35R] — within error, -0.173 ± 0.14
- QGEKVEGLQAQALYPWRAKKDNHLNFNKNDVITVLHQQDMWWFGEVQGQKGWFPKSYVKLISG [E36H] — within error, -0.235 ± 0.2
- QGEKVEGLQAQALYPWRAKKDNHLNFNKNDVITVLRQQDMWWFGEVQGQKGWFPKSYVKLISG [E36R] — within error, -0.147 ± 0.12
- QGEKVEGLQAQALYPWRAKKDNHLNFNKNDVITVLCQQDMWWFGEVQGQKGWFPKSYVKLISG [E36C] — within error, -0.015 ± 0.37
- QGEKVEGLQAQALYPWRAKKDNHLNFNKNDVITVLVQQDMWWFGEVQGQKGWFPKSYVKLISG [E36V] — within error, -0.044 ± 0.2
- QGEKVEGLQAQALYPWRAKKDNHLNFNKNDVITVLWQQDMWWFGEVQGQKGWFPKSYVKLISG [E36W] — within error, -0.117 ± 0.12
- QGEKVEGLQAQALYPWRAKKDNHLNFNKNDVITVLLQQDMWWFGEVQGQKGWFPKSYVKLISG [E36L] — within error, -0.094 ± 0.17
- QGEKVEGLQAQALYPWRAKKDNHLNFNKNDVITVLDQQDMWWFGEVQGQKGWFPKSYVKLISG [E36D] — within error, -0.761 ± 0.41
- QGEKVEGLQAQALYPWRAKKDNHLNFNKNDVITVLYQQDMWWFGEVQGQKGWFPKSYVKLISG [E36Y] — within error, -0.279 ± 0.24
- QGEKVEGLQAQALYPWRAKKDNHLNFNKNDVITVLTQQDMWWFGEVQGQKGWFPKSYVKLISG [E36T] — within error, -0.149 ± 0.18
- QGEKVEGLQAQALYPWRAKKDNHLNFNKNDVITVLAQQDMWWFGEVQGQKGWFPKSYVKLISG [E36A] — within error, -0.026 ± 0.17
- QGEKVEGLQAQALYPWRAKKDNHLNFNKNDVITVLMQQDMWWFGEVQGQKGWFPKSYVKLISG [E36M] — within error, -0.177 ± 0.22
- QGEKVEGLQAQALYPWRAKKDNHLNFNKNDVITVLGQQDMWWFGEVQGQKGWFPKSYVKLISG [E36G] — within error, -0.076 ± 0.093
- QGEKVEGLQAQALYPWRAKKDNHLNFNKNDVITVLQQQDMWWFGEVQGQKGWFPKSYVKLISG [E36Q] — within error, -0.344 ± 0.34
- QGEKVEGLQAQALYPWRAKKDNHLNFNKNDVITVLKQQDMWWFGEVQGQKGWFPKSYVKLISG [E36K] — within error, 0.017 ± 0.26
